For the test, the target named is Synthetic Aβ(1–42), prepared as amyloid-beta-derived diffusible ligands (ADDLs) (human). Nature of the test: SEC; analytical SEC of the ADDL preparation (Superdex 75 5/150, PBS, pH 7.4); oligomer peak area divided by oligomer plus monomer peak area; three separate experiments. Background: SEC sorts molecules by how far they enter the pores of the column.

As to “Synthetic Aβ(1–42), prepared as amyloid-beta-derived diffusible ligands (ADDLs) (peptide)”, the percent of total Aβ in species larger than monomers was found to be 47%.

(Values after publication PMC4369838.)
